Consider one molecule from EP3816180A1 (Max-Planck-Gesellschaft zur Förderung der Wissenschaften …, dated 2021).

The assay deals with T1, cpHaloΔ9mer.
T1 construct: Large fragment of split, circularly permuted HaloTag7; Made in E. coli; also called cpHalo_9mer; cpHalo156-141
Briefly: ITC; 9mer peptide (30 mM) titrated into cpHaloΔ9mer (0.6 mM), HEPES 50 mM pH 7.3, NaCl 50 mM; three independent measurements. Background: In ITC the heat of successive injections is recorded.

T1 sequence (chain, as listed by the source mutant): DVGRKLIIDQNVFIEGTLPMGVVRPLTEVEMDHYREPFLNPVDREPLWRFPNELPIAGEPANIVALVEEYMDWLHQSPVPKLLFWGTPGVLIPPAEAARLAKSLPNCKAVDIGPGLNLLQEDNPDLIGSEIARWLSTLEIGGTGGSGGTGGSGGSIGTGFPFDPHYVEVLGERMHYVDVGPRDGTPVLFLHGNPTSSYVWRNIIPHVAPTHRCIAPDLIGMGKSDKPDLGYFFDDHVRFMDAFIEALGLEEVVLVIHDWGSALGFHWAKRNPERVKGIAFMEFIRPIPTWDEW

B1: 9mer peptide (peptide)
peptide: ARETFQAFR
notes: Free peptide titrated in ITC; also called PEP1
As a reminder, the Kd is the equilibrium constant for the complex coming apart. Low readings indicate a tighter complex, high ones a looser complex. With B1, binding was put at a Kd of 5.3 mM.
